Key:
Settings in all cases: 20 nM; 72 h
MCF10A [1] = assay: one-nucleolus phenotype percent effect (relative to siNT 0% and siNOL11 100%); higher = more cells with one nucleolus (ribosome biogenesis inhibition)
Description: (§1)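 After 72 h, cells were fixed and stained with Hoechst and anti-fibrillarin, and nucleoli per nucleus were counted with CellProfiler. Values are plate-adjusted percent effect for the one-nucleolus and 5+ nucleoli phenotypes, normalised to siNT (0%) and to the positive controls siNOL11 or siKIF11 (100%), as the mean of biological triplicates. Percent viability is the nuclei count relative to siNT.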

MCF10A [2] = assay: 5+ nucleoli phenotype percent effect (relative to siNT 0% and siKIF11 100%); higher = more cells with five or more nucleoli
Description: as §1

MCF10A [3] = assay: percent viability (nuclei count relative to siNT); higher = more viable cells
Description: as §1

Sequence | one-nucleolus phenotype percent effect (MCF10A [1]) | 5+ nucleoli phenotype percent effect (MCF10A [2]) | percent viability (MCF10A [3])
CCAAGGAAGGAGGCUGGACAUC [hsa-miR-6830-5p] | 13.3% | -10.3% | 47.1%
UCCCCUGCUCCCUUGUUCCCCAG [hsa-miR-6810-3p] | 3.27% | 4.97% | 35.1%
UGGGCGUAUCUGUAUGCUA [hsa-miR-585] | 41.1% | -5.6% | 39.1%
UCAAUAGGAAAGAGGUGGGACCU [hsa-miR-6826-5p] | 26.5% | -20.8% | 33.3%
UAGGUAGUUUCCUGUUGUUGGG [hsa-miR-196b-5p] | -8.68% | 54.4% | 41.4%
GAGCUUUUGGCCCGGGUUAUAC [hsa-miR-208a-5p] | -31% | 45.1% | 216%
CACCUCUCCUGGCAUCGCCCC [hsa-miR-6800-3p] | -20.1% | 21.6% | 128%
AUUGGACUGCUGAUGGCCCGU [hsa-miR-4529-3p] | 19.5% | -12.1% | 48.3%
CUACAAAGGGAAGCACUUUCUC [hsa-miR-524-5p] | 17.4% | -38.7% | 41.4%
GCCCGCGUGUGGAGCCAGGUGU [hsa-miR-1471] | -18.2% | 49.2% | 97.1%
AUUCUAAGUGCCUUGGCC [hsa-miR-4263] | -0.791% | -1.39% | 37.3%
GGCGGCGGCGGAGGCGGGGG [hsa-miR-3960] | 26.8% | -17.5% | 47.6%
CAGUGCAAGUGUAGAUGCCGA [hsa-miR-3666] | -18.2% | 66.7% | 150%
AAUCCUUGGAACCUAGGUGUGAGU [hsa-miR-362-5p] | -1.23% | -6.28% | 36.6%
UCGUAUCAGAGAUUCCAGACAC [hsa-miR-6506-3p] | 5.43% | -11.2% | 85.1%
GGGGUGGUCUGUUGUUG [hsa-miR-4483] | -25.2% | 44.6% | 5.44%
UGAGUGUUGUCUACGAGGGCA [hsa-miR-3659] | -0.683% | 21.3% | 59%
CUGGAGUCUAGGAUUCCA [hsa-miR-4309] | 33.6% | -25.6% | 33.2%
CCUCCUGAUGAUUCUUCUUC [hsa-miR-3653-5p] | -22.7% | 32.7% | 159%
ACCUGAGGUUGUGCAUUUCUAA [hsa-miR-544b] | 20.9% | -17.6% | 45.3%
UUAGCUUAAGGAGUACCAGAUC [hsa-miR-5579-3p] | -7.52% | 7.97% | 65.6%
AAAAACUGCAAUCACUUUUGC [hsa-miR-548az-3p] | -6.63% | 7.93% | 62%
UGAGGCUCUGUUAGCCUUGGCUC [hsa-miR-2467-5p] | 37.5% | -10.9% | 29.8%
UUGGAAUAGGGGAUAUCUCAGC [hsa-miR-6505-5p] | 29.1% | -46.6% | 36.9%
CAUCAGCACCCUAUGUCCUUUCU [hsa-miR-3617-3p] | 29.5% | -20.3% | 20%
UAGCAAAAACUGCAGUUACUUU [hsa-miR-548p] | -21.8% | 17.2% | 114%
AACCAUCGACCGUUGAGUGGAC [hsa-miR-181c-3p] | 16.6% | -21.2% | 71%
AAAAGUAAUUGCGGUUUUUGCC [hsa-miR-548c-5p] | -19.1% | 16.9% | 166%
GUGAAUUACCGAAGGGCCAUAA [hsa-miR-183-3p] | 9.97% | -32% | 56.8%

From the supplement of paper PMC10899765
